Values quoted from earlier work, collected in paper PMC6704634.

Biological target: EGFR isoform I (Homo sapiens) (UniProt P00533)

Kd: 177 nM
Substance: EGF (from UniProt P01133)
